Data from EP4631959A2, “NOVEL MINIGASTRIN-DERIVED CHOLECYSTOKININ 2 RECEPTOR BINDING MOLECULES FOR IMAGING AND TARGETED RADIOTHERAPY” (priority 2022, dated 2024).
Like-named read-outs stand apart in the source and are kept apart here. Starred links: 1 amine or outer side, 2 acyl side, 3 side chain; linkers in the order of their positions; H or OH if unused. Non-standard residues stand in square brackets, D forms with d. Residues, ends and D or L forms follow the SMILES beside them. *: point of attachment. Benzoyl(4-SiFtBu2) = CC(C)(C)[Si](F)(c1ccc(C(=O)*)cc1)C(C)(C)C; DOTA = O=C(O)CN1CCN(CC(=O)O)CCN(CC(=O)*)CCN(CC(=O)O)CC1; d(γGlu) = O=C(O)[C@@H](CCC(=O)[*:2])N[*:1]; 1Nal = N[C@@H](Cc1cccc2ccccc12)C(=O)O; Hyp = O=C(O)[C@@H]1C[C@@H](O)CN1; NMeNle = CCCC[C@H](NC)C(=O)O; PEG4 = NCCOCCOCCOCCOCCC(=O)O; dDap = NC[C@@H](N)C(=O)O

Legend:
[1] = In vivo stability studies in murine serum and urine; design: species or system CB17-SCID mice; details: 30 min p.i.
Experimental: Stability studies were performed via injection of the ^177Lu-labeled peptide (approx. 35 MBq, 1 nmol) into the tail vein (n = 3) of anesthetized (2% isoflurane) CB17-SCID mice. At 30 min p.i. the mice were euthanized and a urine as well as a blood sample were taken. The urine sample was analyzed without further treatment. The blood sample was centrifuged at 5,000 rpm for 2 min. Afterwards, the serum was collected and ice-cold MeCN (1:1, v/v) as well as EtOH (1:2, v/v) were added. The sample was centrifuged at 5,000 rpm for 2 min once more and the supernatant was analyzed via RP-HPLC (10→30% in 5 min, 30→60% in 15 min, MeCN/H2O + 0.1% TFA).

CCK-2R = target: T1, CCK-2R (Rattus norvegicus, UniProt P30553); test: Determination of IC50: CCK-2R affinity on AR4-2J cells, competition with [^177Lu]Lu-DOTA-PP-F11N; assay type: binding; details: AR4-2J cells
T1 construct: The CCK-2R expressing rat pancreatic tumor cells AR4-2J; host or cells: AR4-2J rat pancreatic tumor cells
T1 sequence (P30553 1-452): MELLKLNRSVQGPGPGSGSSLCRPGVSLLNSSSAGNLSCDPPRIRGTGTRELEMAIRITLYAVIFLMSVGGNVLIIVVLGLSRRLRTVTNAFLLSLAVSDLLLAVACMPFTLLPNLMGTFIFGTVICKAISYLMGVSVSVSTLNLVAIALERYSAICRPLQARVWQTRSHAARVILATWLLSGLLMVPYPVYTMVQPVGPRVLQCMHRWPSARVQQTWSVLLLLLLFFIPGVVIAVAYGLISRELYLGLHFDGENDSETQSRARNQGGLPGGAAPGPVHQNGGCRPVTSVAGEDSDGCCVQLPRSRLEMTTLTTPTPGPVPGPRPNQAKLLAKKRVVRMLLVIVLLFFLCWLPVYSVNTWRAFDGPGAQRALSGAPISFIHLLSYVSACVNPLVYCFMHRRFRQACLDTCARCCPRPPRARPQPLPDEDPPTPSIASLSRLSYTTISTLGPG
Outline: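 Competitive displacement of 0.3 pmol/well [177Lu]Lu-DOTA-PP-F11N by compounds (10^-10 to 10^-4 M) on AR4-2J cells in BSA-supplemented medium, 3 h at 37 °C. Free label was collected from medium plus PBS rinse, and cell-bound label was recovered with 1 M NaOH, both measured by γ-counter. Each IC50 was determined twice, in triplicate.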

For CCCC[C@@H](C(=O)N[C@@H](CC(=O)O)C(=O)N[C@@H](Cc1cccc2ccccc12)C(N)=O)N(C)C(=O)[C@H](Cc1c[nH]c2ccccc12)NC(=O)CCOCCOCCOCCOCCNC(=O)CC[C@@H](NC(=O)[C@@H]1C[C@@H](O)CN1C(=O)[C@@H]1C[C@@H](O)CN1C(=O)[C@@H]1C[C@@H](O)CN1C(=O)[C@@H]1C[C@@H](O)CN1C(=O)[C@@H]1C[C@@H](O)CN1C(=O)[C@@H]1C[C@@H](O)CN1C(=O)CC[C@@H](NC(=O)[C@@H](CNC(=O)c1ccc([Si](F)(C(C)(C)C)C(C)(C)C)cc1)NC(=O)CN1CCN(CC(=O)O)CCN(CC(=O)O)CCN(CC(=O)O)CC1)C(=O)O)C(=O)O [DOTA-rhCCK-84, DOTA-dap(SiFA)-γ-glu-(Hyp)6-γ-glu-(PEG)3-Trp-(N-Me)Nle-Asp-1-Nal-NH2] ({DOTA}-[dDap](Benzoyl(4-SiFtBu2))[d(γGlu)][Hyp][Hyp][Hyp][Hyp][Hyp][Hyp][d(γGlu)][PEG4]W[NMeNle]D[1Nal]-NH2), the “in vivo stability in the serum (intact compound)” value ([1]; murine serum) was 93.5 ± 2.1%, the “in vivo stability in the urine (intact compound)” value ([1]; murine urine) was 55.4 ± 9.0% and the IC50 (CCK-2R; read-out: IC50 [nM] (n = 3), ^natGa-labeled, ^natGa-labeled) was 27.7 ± 3.1 nM. It also gave an IC50 (CCK-2R; read-out: IC50 [nM] (n = 3), ^natLu-labeled, ^natLu-labeled) of 7.87 ± 0.3 nM.
